In patent publication US20260201029A1:

How the values were obtained:
human FcγRIIb/c (human) = human FcγRIIb/c (human) (UniProt P31994); assay: SPR, receptor captured by anti-his, antibody injected, steady-state fit
human FcγRIIa (human) = human FcγRIIa (human) (UniProt P12318); assay: as above
[1] = target: cynomolgus FcγRIIa (cynomolgus); assay: as above
[2] = target: cynomolgus FcγRIIb (cynomolgus); assay: as above
human FcγRI (human) = human FcγRI (human) (UniProt P12314); assay: SPR, receptor captured by anti-his, antibody injected, 1:1 fit
human FcγRI (human), sequence (P12314 16-288 limits assumed): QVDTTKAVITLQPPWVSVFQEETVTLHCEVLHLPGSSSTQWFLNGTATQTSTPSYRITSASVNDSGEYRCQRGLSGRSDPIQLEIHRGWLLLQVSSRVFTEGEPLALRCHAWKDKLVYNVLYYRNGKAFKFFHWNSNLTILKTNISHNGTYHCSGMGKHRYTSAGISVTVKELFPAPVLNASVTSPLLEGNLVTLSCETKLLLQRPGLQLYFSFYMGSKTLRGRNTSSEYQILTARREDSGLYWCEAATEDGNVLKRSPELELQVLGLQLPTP

[3] = target: human FcγRIIIa 158F allele (human) (UniProt P08637); assay: as above
human FcγRIIIa 158F allele (human), sequence (P08637 17-208 limits assumed): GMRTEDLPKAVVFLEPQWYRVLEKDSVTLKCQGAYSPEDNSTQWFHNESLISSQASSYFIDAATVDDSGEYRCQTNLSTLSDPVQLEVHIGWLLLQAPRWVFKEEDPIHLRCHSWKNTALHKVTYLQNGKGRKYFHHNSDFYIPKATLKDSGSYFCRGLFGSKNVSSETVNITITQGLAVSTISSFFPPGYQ

[4] = target: human FcγRIIIa 158V allele (human) (UniProt P08637); assay: as above
human FcγRIIIa 158V allele (human), sequence (P08637 17-208 F176V limits assumed): as the sequence (P08637 17-208 limits assumed) above, with F160V counted along it

[5] = target: cynomolgus FcγRI (cynomolgus); assay: as above
[6] = target: cynomolgus FcγRIII (cynomolgus) (UniProt Q8SPW2); assay: as above
cynomolgus FcγRIII (cynomolgus), sequence (Q8SPW2 17-208 limits assumed): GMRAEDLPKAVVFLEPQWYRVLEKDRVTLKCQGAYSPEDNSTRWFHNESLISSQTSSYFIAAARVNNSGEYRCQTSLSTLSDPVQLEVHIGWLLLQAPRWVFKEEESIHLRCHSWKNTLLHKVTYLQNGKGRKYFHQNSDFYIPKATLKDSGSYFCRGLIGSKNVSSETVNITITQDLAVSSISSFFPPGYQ

human FcγRIIb/c (human), sequence (P31994 46-217 limits assumed): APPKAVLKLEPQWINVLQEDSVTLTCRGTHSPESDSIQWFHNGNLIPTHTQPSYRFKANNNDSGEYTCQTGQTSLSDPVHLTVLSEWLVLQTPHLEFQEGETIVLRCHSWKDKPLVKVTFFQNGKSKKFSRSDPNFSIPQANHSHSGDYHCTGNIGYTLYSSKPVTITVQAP
human FcγRIIa (human), sequence (P12318 36-218 limits assumed): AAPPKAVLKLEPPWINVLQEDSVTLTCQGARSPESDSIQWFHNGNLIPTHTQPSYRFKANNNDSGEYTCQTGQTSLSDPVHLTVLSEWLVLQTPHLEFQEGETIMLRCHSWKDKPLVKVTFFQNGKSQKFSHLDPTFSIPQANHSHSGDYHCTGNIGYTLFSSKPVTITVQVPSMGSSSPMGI

- Fold increase in binding (vs wt IgG1 control) (human FcγRIIb/c (human)): 1 fold
- Kd (human FcγRIIb/c (human)): 11.2 µM
- Fold increase in binding (vs wt IgG1 control) (human FcγRIIa (human)): 1 fold
- Kd (human FcγRIIa (human)): 9.33 µM
- Fold increase in binding (vs wt IgG1 control) [1]: 1 fold
- Kd [1]: 8.15 µM
- Fold increase in binding (vs wt IgG1 control) [2]: 1 fold
- Kd [2]: 4.45 µM
- Fold increase in binding (vs wt IgG1 control) (human FcγRI (human)): 1 fold
- Kd (human FcγRI (human)): 0.0029 µM
- Kd [3]: 3.78 µM
- Kd [4]: 0.905 µM
- Fold increase in binding (vs wt IgG1 control) [5]: 1 fold
- Kd [5]: 0.0015 µM
- Kd [6]: 0.395 µM
Substance: wt IgG1 control (antibody)
